Measurements: patent US20160137740A1 (AstraZeneca / MedImmune, published 2016)

Assays:
Human OX40 [1] = biological target: T1, Human OX40 (human, UniProt P43489 29-277); test: cell-based or functional assay
T1 sequence: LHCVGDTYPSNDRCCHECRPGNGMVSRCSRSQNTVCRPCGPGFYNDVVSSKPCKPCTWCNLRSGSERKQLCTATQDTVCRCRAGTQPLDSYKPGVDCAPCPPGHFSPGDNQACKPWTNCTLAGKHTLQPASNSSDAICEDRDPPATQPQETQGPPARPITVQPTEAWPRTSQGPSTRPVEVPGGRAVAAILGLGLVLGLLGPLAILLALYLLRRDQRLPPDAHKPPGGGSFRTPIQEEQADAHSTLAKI

Human OX40 [2] = biological target: T1, Human OX40; test: cell-based or functional assay; remark: listed apart in the source
Human OX40 [3] = biological target: T1, Human OX40; test: cell-based or functional assay; remark: listed apart in the source
Human OX40 [4] = biological target: T1, Human OX40; test: cell-based or functional assay; remark: listed apart in the source
[5] = biological target: T2, KO_CRD3 (human OX40 aa 108 to 146 replaced with the mouse counterparts) (human; mouse, UniProt P43489 29-277); test: flow cytometry, transfected 293F cells, column KO_CRD3
T2 construct: Chimeric variant with a transmembrane domain, transient on 293F cells
T2 chain: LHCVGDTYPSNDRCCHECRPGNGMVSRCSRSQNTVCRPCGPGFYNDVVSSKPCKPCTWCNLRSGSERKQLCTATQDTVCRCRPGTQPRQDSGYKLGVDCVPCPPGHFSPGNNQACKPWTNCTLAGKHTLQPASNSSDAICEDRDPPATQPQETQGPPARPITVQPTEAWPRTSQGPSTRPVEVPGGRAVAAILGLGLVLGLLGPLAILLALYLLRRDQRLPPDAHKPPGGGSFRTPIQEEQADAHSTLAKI

[6] = biological target: T3, KO_L116+A126 (human OX40 aa Leu116 and Ala126 replaced with the mouse counterparts) (human, UniProt P43489 29-277); test: flow cytometry, transfected 293F cells, column KO_L116A126 [FIGURE 32B con't]
T3 construct: Variant with a transmembrane domain, transient on 293F cells
T3 chain: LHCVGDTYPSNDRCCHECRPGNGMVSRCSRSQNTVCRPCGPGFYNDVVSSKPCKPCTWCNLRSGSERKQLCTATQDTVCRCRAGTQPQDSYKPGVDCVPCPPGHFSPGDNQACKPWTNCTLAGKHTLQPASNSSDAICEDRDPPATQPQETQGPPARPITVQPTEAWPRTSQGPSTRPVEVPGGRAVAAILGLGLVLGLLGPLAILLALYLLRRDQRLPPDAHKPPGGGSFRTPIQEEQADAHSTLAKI
Description: Forty-eight hours after transfection, HEK293F cells were incubated with 1 μg/mL of OX40mAb24 for 1 hour on ice in PBS. To detect bound OX40mAb24 by flow cytometry, the cells were washed 3-times with cold PBS, incubated with 1 μg/mL of Alexa480-conjugated anti-human IgG antibody for 1 hr on ice, and then analyzed using the LSRII flow cytometer.
The expression levels of all chimeric OX40 variants were also monitored by flow cytometry; the cells were incubated with a mixture of sheep anti-human OX40 and goat anti-mouse OX40 polyclonal antibodies at 1 μg/mL in PBS for 1 hour on ice. Cells were washed 3-times with cold PBS, and then incubated with a mixture of Alexa480-conjugated anti-goat and anti-sheep IgG polyclonal antibodies. After washing 3 times with cold PBS, cells were analyzed with the LSRII flow cytometer.

Human OX40 [7] = biological target: T1, Human OX40; test: flow cytometry on human OX40-overexpressing Jurkat clone 64 cells; 50% receptor occupancy calculated from Kd
Description: Human OX40-overexpressing Jurkat NFκB-luciferase clone 64 cells were cultured in complete RPMI+10% FBS prior to binding experiments, without the need for activation.
OX40mAb24 (10 μg/mL) or 9B12 (10 μg/mL) was diluted over a 17 point 2-fold dilution series. OX40mAb24 was added to 100,000 cells (activated primary CD4⁺ T cells or human OX40-overexpressing Jurkat NFkB-luciferase clone 64 cells) per well and incubated for one hour at 4° C. For background binding subtraction, cells were incubated in the presence of secondary antibody alone. […] Following secondary antibody incubation, cells were washed and suspended in 100 μL FACS buffer for flow cytometry analysis on a BD LSRII flow cytometer as described below.

Cynomolgus monkey OX40 = biological target: T4, Cynomolgus monkey OX40 (cynomolgus monkey); test: flow cytometry, equilibrium binding to activated primary cynomolgus CD4+ T cells; mean of 2 experiments (StdErr)
T4 construct: also called cyno OX40
Description: Cyno CD4⁺ T cell isolation was performed with a Miltenyi non-human primate kit according to manufacturer's instructions, then CD4⁺ T cells counted on a ViCell counter and suspended at 1×10⁶ per mL in complete medium as described above.
Cyno CD4⁺ T cells (1×10⁶ per mL in complete medium) were incubated for 48 hours in a T75 cell culture flask with 2 μg/mL PHA-L and 20 IU/mL IL-2, to activate T cells and induce OX40 expression. Activated CD4⁺ T cells were removed from the flask and 100,000 cells were transferred to each well of a non-tissue culture treated 96-well round-bottom plate for binding assays and washed with 200 μL FACS buffer. Binding was performed with 10 μg/mL OX40mAb24 or 9B12 serially diluted 4-fold in FACS buffer for an 11-point data curve, or both R347 human IgG1 or mouse IgG1 clone MOPC-21 (negative controls) serially diluted 6-fold for a 3 point data curve. OX40mAb24, 9B12 or control protein was added to CD4⁺ T cells and incubated. […] Following secondary antibody incubation, cells were processed for flow cytometry as described in Section 2.3.

- EC50, CD4+ T cell proliferation, donor 367 (Human OX40 [1]): 156 pM
- EC50, CD4+ T cell proliferation, donor 645 (Human OX40 [1]): 169 pM
- EC50, CD4+ T cell proliferation, donor 651 (Human OX40 [1]): 309 pM
- EC50, CD4+ T cell proliferation, donor 661 (Human OX40 [1]): 237 pM
- EC50, TNFα release, donor 645 (Human OX40 [2]): 670 pM
- EC50, TNFα release, donor 651 (Human OX40 [2]): 764 pM
- EC50, IL10 release, donor 367 (Human OX40 [3]): 198 pM
- EC50, IL10 release, donor 645 (Human OX40 [3]): 1220 pM
- EC50, IL10 release, donor 651 (Human OX40 [3]): 796 pM
- EC50, NFκB-luciferase 2-cell assay, exp 1, Raji (Human OX40 [4]): 9280 pM
- EC50, NFκB-luciferase 2-cell assay, exp 2, CD32A-expressing HEK (Human OX40 [4]): 338 pM
- EC50, NFκB-luciferase 2-cell assay, exp 3, CD32A-expressing HEK (Human OX40 [4]): 225 pM
- EC50, NFκB-luciferase 2-cell assay, exp 4, Raji (Human OX40 [4]): 5040 pM
- EC50, NFκB-luciferase 2-cell assay, exp 5, CD32B-expressing HEK (Human OX40 [4]): 726 pM
- EC50, NFκB-luciferase 2-cell assay, exp 6, Raji (Human OX40 [4]): 2700 pM
- EC50, NFκB-luciferase 2-cell assay, exp 7, CD32B-expressing HEK (Human OX40 [4]): 1770 pM
- EC50, NFκB-luciferase 2-cell assay, exp 8, CD32B-expressing HEK (Human OX40 [4]): 1340 pM
- EC50, NFκB-luciferase 2-cell assay, exp 9, Raji (Human OX40 [4]): 3070 pM
- EC50, NFκB-luciferase 2-cell assay, exp 10, Raji (Human OX40 [4]): 3330 pM
- EC50, NFκB-luciferase 2-cell assay, exp 11, CD32B-expressing HEK (Human OX40 [4]): 2360 pM
- EC50, NFκB-luciferase 2-cell assay, exp 12, CD45+ cells, NSCLC (Human OX40 [4]): 223 pM
- EC50, NFκB-luciferase 2-cell assay, exp 15, CD45+ cells, RCC (Human OX40 [4]): 2420 pM
- binding result [5]: no binding
- binding result [6]: no binding
- EC50 (Human OX40 [7]): 726 pM
- Kd (Cynomolgus monkey OX40): 1090 pM
B1: 9B12 (antibody, mouse IgG1, V domains shown)
VH: EVQLQESGPSLVKPSQTLSLTCSVTGDSFTSGYWNWIRKFPGNRLEYMGYISYNGITYHNPSLKSRISITRDTSKNHYYLQLNSVTTEDTATYFCARYRYDYDGGHAMDYWGQGTLVTVSS
VL: DIQMTQTTSSLSASLGDRVTISCRASQDISNYLNWYQQKPDGTVKLLIYYTSKLHSGVPSRFSGSGSRTDYSLTITDLDQEDIATYFCQQGSALPWTFGQGTKVEIKR
notes: mouse IgG1 kappa; also called murine mAb 9B12; mouse anti-human OX40 IgG1κ monoclonal antibody
